In US10590192B2, “Midkine antibody” (Cellmid Limited, priority 2014, dated 2020):
Entries after “also recorded” stand apart in the source; their conditions may differ.

B1: IP14-H5L8: humanised IP14 antibody: VH SEQ ID NO: 6, VL SEQ ID NO: 17 (antibody, V domains shown)
VH: QVQLVQSGGGLVQPGGSLRLSCAASGQSFSSYWMNWVRQAPGQGLEWIGMIHPSDSETILNQKFKDKATLTVDISKNTAYLQMNSLRAEDTAVYYCSSWSAKRGDFWGQGTLVTVSS
VL: DIVLTQSPATLSLSPGERATLSCRASESISNNLHWYQQKPHQAPRLLIYYASQSISGVPARFSGSGSGTDFTLTISSVEPEDFAVYYCQQSNSWPLTFGQGTKVEIKR
modifications: Variable region heavy chain humanised variant 5 (VH5); Variable region light chain humanised variant 8 (VL8)
B2: IP14-H4L7: humanised IP14 antibody: VH SEQ ID NO: 5, VL SEQ ID NO: 16 (antibody, V domains shown)
VH: QVQLVQSGAEVKKPGASVKVSCKASGYTFTSYYMHWVRQAPGQGLEWMGIIHPSGGSTSYAQKFQGRVTMTRDTSTSTVYMELSSLRSEDTAVYYCARWSAKRGDFWGQGTLVTVSS
VL: DIVLTQSPATLSLSPGERANLSCRASESISNNLHWYQQKPHQAPRLLIYYASQSISGVPARFSGSGSGTDFNLTISSVEPEDFAVYYCQQSNSWPLTFGQGTKVEIKR
modifications: Variable region heavy chain humanised variant 4 (VH4); Variable region light chain humanised variant 7 (VL7)
B3: IP14-H6L8: humanised IP14 antibody: VH SEQ ID NO: 7, VL SEQ ID NO: 17 (antibody, V domains shown)
VH: QVQLVQSGGGLVKPGHSLRLSCAASGQSFSSYWMNWVRQAPGKGLEWIGMIHPSDSETILNQKFKDKATLSVDIAKNSAYLQMNSLRAEDTAVYYCSSWSAKRGDFWGQGTLVTVSS
VL: DIVLTQSPATLSLSPGERATLSCRASESISNNLHWYQQKPHQAPRLLIYYASQSISGVPARFSGSGSGTDFTLTISSVEPEDFAVYYCQQSNSWPLTFGQGTKVEIKR
modifications: Variable region heavy chain humanised variant 6 (VH6); Variable region light chain humanised variant 8 (VL8)
B4: IP14-H4L8: humanised IP14 antibody: VH SEQ ID NO: 5, VL SEQ ID NO: 17 (antibody, V domains shown)
VH: QVQLVQSGAEVKKPGASVKVSCKASGYTFTSYYMHWVRQAPGQGLEWMGIIHPSGGSTSYAQKFQGRVTMTRDTSTSTVYMELSSLRSEDTAVYYCARWSAKRGDFWGQGTLVTVSS
VL: DIVLTQSPATLSLSPGERATLSCRASESISNNLHWYQQKPHQAPRLLIYYASQSISGVPARFSGSGSGTDFTLTISSVEPEDFAVYYCQQSNSWPLTFGQGTKVEIKR
modifications: Variable region heavy chain humanised variant 4 (VH4); Variable region light chain humanised variant 8 (VL8)
B5: IP14-H6L3: humanised IP14 antibody: VH SEQ ID NO: 7, VL SEQ ID NO: 12 (antibody, V domains shown)
VH: QVQLVQSGGGLVKPGHSLRLSCAASGQSFSSYWMNWVRQAPGKGLEWIGMIHPSDSETILNQKFKDKATLSVDIAKNSAYLQMNSLRAEDTAVYYCSSWSAKRGDFWGQGTLVTVSS
VL: DIVLTQSPATLSLSPGERATLSCRASESISNNLHWYQQKPGQAPRLLIYYASQSISGIPARFSGSGPGTDFTLTISSLEPEDFAVYYCQQSNSWPLTFGGGTKLEIKR
modifications: Variable region heavy chain humanised variant 6 (VH6); Variable region light chain humanised variant 3 (VL3)

Experiments:
human midkine protein = molecular target: T1, human midkine protein (Homo sapiens, UniProt P21741); assay: UMR106 cell migration inhibition assay (modified Boyden chamber); assay type: cell-based, rat; details: comparison in words
T1 construct: human MK cDNAs comprising the MK coding region flanked by EcoRI restriction sites; made in house; host or cells: Pichia pastoris GS115 (clone T3L-50-4P), secreted into culture supernatant
T1 sequence (P21741 21-143): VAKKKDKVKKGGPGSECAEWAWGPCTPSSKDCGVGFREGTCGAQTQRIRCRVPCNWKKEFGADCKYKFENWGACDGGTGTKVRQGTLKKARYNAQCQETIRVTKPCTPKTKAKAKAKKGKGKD
Method: Cell migration assays were performed for each of the preferred candidate humanised IP14 antibodies and the murine IP14 parent antibody to determine the ability of these antibodies to inhibit migration of UMR106 cells to midkine.
The UMR-106 rat osteosarcoma cell line was originally obtained from the American Type Culture Collection, PO Box 1549, Manassas, Va., USA as a frozen stock (catalog no. CRL-1661; batch no. 58494148).
The cells were maintained in: DMEM+Glutamax (DMEM, catalog no. 10569-010 500 mL, lot. no. 778325, Invitrogen/Gibco) supplemented with the following items: Penicillin (10,000 U/mL stock concentration)—Streptomycin (10,000 μg/mL stock concentration) (catalog no. 15140-122 100 mL, lot no. 730849, Invitrogen/Gibco) at a rate of 1 mL/200 mL of DMEM 10% fetal bovine serum (FBS, catalog no. 100099-141, lot no. 6955347Y, Invitrogen/Gibco). The DEM+Glutamax media containing 50 U/mL penicillin, 50 μg/mL streptomycin and 10% FBS is identified as Complete media in this report. The 10% FBS was replaced by 0.3% (w/v) bovine serum albumin (BSA) for the cell migration assays. The BSA was supplied by Sigma-Aldrich, catalog no. A-3192, lot no. 31K1264 and was formulated as a 15% (w/v) stock solution in D-PBS which was sterilized by passage through a 0.22 micron filter and stored at −20° C. prior to use. The cell cultures were maintained in T75 tissue culture-treated flasks in a humidified incubator at approximately 37° C. and 5% carbon dioxide. Cells were sub-cultured twice weekly at a sub-culture ratio ranging from approximately 1:8 to 1:20. Cells were dissociated from the flask by rinsing once with Dulbecco's phosphate buffered saline (DPBS, catalog no. 14190, lot no. 783715, Invitrogen/Gibco) and then incubated with 0.25% Trypsin-EDTA solution (Invitrogen/Gibco) at 37° C. for 2-5 minutes. The cells were then removed by addition of approximately 10 mL of Complete media. The experiments were completed using UMR-106 cells at ˜50 to 75% confluency on the day prior to assay. These cultures were washed once with DMEM and cultured overnight in DMEM containing 0.5% FBS. […]

murine MK (muMK) = molecular target: T2, murine MK (muMK) (Mus musculus, UniProt P12025); assay: ELISA binding of humanised anti-MK antibodies to muMK; details: for binding affinity for muMK compared with murine IP14 precursor antibody and chimeric antibody: comparison in words; for EC50: ELISA, plates coated with 2 ug/mL muMK, read-out: Binding affinity for muMK, ELISA EC50
T2 sequence (P12025 23-140): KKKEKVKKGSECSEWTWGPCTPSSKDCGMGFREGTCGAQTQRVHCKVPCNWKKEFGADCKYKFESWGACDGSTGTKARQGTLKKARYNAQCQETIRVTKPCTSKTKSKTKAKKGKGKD
Method: (§1) The binding specificity and affinity of the humanised anti-MK antibodies to recombinant human MK (huMK) and murine MK (muMK) was assessed by ELISA. ELISA plates (Nunc Immuno MaxiSorp 96 well flat-bottom were coated with 100 uL of 2 ug/mL of either huMK or muMK in 2% BSA/PBS (overnight at room temperature). After washing, blocking (1 h at 37° C.), and washing again, the humanised anti-MK and chimeric antibodies described in Example 1 were analysed for binding to huMK or muMK at concentrations ranging between 3 μg/ml and 0.00004 μg/ml in 2% BSA/PBS (1 h at 37° C.). After washing, the binding of antibody was detected with goat anti-mouse IgG (Fab specific)-HRP conjugate (Sigma, Cat. No. A9917) and SigmaFast OPD substrate (Sigma, Cat. No. P9187). The reaction was stopped with 3 M HCl, absorbance read at 490 nm on a Dynex Technologies MRX TC II plate reader and the binding curves plotted. Binding affinity data for the humanised anti-MK antibodies to huMK and muMK are presented in Table 6 and Table 7 respectively, and in FIG. 3.
(§2) KD values for hIP14-H5L8, hIP14-H6L3 and hIP14-H6L8 was then compared with the KD values obtained for the corresponding murine IP14 precursor antibody and the chimeric antibody using the methods described in Example 2. […] Based on this finding, these candidate antibodies were produced to 100 mg scale to enable further testing in functional assays to determine biological function.

[1] = molecular target: T3, recombinant human MK (huMK) (Homo sapiens, UniProt P21741); assay: ELISA binding of humanised anti-MK antibodies to huMK; details: for binding affinity for huMK compared with murine IP14 precursor antibody: comparison in words; for EC50: ELISA, plates coated with 2 ug/mL huMK, read-out: Binding affinity for huMK, ELISA EC50
T3 sequence (P21741 21-143): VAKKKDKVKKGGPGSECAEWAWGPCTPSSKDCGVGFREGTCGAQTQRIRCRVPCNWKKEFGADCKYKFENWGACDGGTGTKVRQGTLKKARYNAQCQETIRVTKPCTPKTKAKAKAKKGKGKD
Method: as §1, §2

Row | Molecule | inhibition of UMR-106 cell migration compared with murine IP14 precursor antibody (human midkine protein) | binding affinity for muMK compared with murine IP14 precursor antibody and chimeric antibody (murine MK (muMK)) | binding affinity for huMK compared with murine IP14 precursor antibody [1] | EC50 (murine MK (muMK)) | EC50 [1]
1 | B1 | more effective; also recorded: greater efficacy | better binding affinity | better binding affinity | – | –
2 | B2 | – | – | – | > 0.01 µM | > 0.01 µM
3 | B3 | more effective; also recorded: greater efficacy | better binding affinity | better binding affinity | – | –
4 | B4 | – | – | – | > 0.01 µM | > 0.01 µM
5 | B5 | more effective; also recorded: greater efficacy | better binding affinity | better binding affinity | – | –
